± gives the uncertainty stated by the source.

These results are taken from the supplement of paper PMC7877785.

A short description of the data set: self-splicing fitness, log relative to wild type (ln ratio); higher = more splicing; Tetrahymena group I intron in knt gene, E. coli kanamycin selection, DiMSum; sequences stand for … in CUCUCU…GGAGGGAAAAGUUAUCAGGCAUGCACCUGGUAGCUAGUCUUUAAACCAAUAGAUUGCAUCGGUUUAAAAGGCAAGACCGUCAAAUUGCGGGAAAGGGGUCAACAGCCGUUCAGUACCAAGUCUCAGGGGAAACUUUGAGAUGGCCUUGCAAAGGGUAUGGUAAUAAGCUGACGGACAUGGUCCUAACCACGCAGCCAAGUCCUAAGUCAACAGAUCUUCUGUUGAUAUGGAUGCAGUUCACAGACUAAAUGUCGGUCGGGGAAGAUGUAUUCUUCUCAUAAGAUAUAGUCGGACCUCUCCUUAAUGGGAGCUAGCGGAUGAAGUGAUGCAACACUGGAGCCGCUGGGAACUAAUUUGUAUGCGAAAGUAUAUUGAUUAGUUUUGGAGUACUCGUGGUCG
Put shortly:
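Pooled colonies went to amplicon sequencing on an Illumina HiSeq 2500 after six replicate transformations. The plates were LB agar with 100 μg/mL carbenicillin, 50 μM IPTG and 0.2% rhamnose, with or without 25 μg/mL kanamycin, incubated overnight at 37°C or 30°C. The E. coli BL21(DE3) library had all eight P1ex-region intron nucleotides randomised, the intron placed in the knt kanamycin-resistance gene on pET-22b(+). DiMSum fitness is the error-weighted combination of replicate fold changes, kanamycin against none, normalised to wild type.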

For GAUUAGCAAUAUUACGCUUU, the “self-splicing fitness (ln)” value was -2.1 ± 0.46 (30 °C) and -1.9 ± 0.33 (37 °C). With UGAGAGCAAUAUUACGCAGA, the “self-splicing fitness (ln)” value (30 °C) is -3.1 ± 0.34. For UUGCAGCAAUAUUACGGGUG, the “self-splicing fitness (ln)” value reads like this: (30 °C) -1.7 ± 0.081; (37 °C) -1.59 ± 0.13.

Turning to AGACAGCAAUAUUACGCAUG, the “self-splicing fitness (ln)” value runs as follows: (30 °C) -2.45 ± 0.13; (37 °C) -1.23 ± 0.11.

Take CUUCAGCAAUAUUACGUGAA: the “self-splicing fitness (ln)” value (30 °C) is -2.71 ± 0.12 and the “self-splicing fitness (ln)” value (37 °C) is -2.72 ± 0.2. The matching figures for AUAUAGCAAUAUUACGGUGA: -1.72 ± 0.2 and -1.11 ± 0.2. On to UAGAAGCAAUAUUACGAGGG, for which the “self-splicing fitness (ln)” value (30 °C) was -3.17 ± 0.18 and the “self-splicing fitness (ln)” value (37 °C) was -2.62 ± 0.21. For UUAUAGCAAUAUUACGGGCG, the “self-splicing fitness (ln)” value (30 °C) was -1.4 ± 0.15 and the “self-splicing fitness (ln)” value (37 °C) was -1 ± 0.2. Regarding UUUUAGCAAUAUUACGAGGG, the “self-splicing fitness (ln)” value (30 °C) was -2.9 ± 0.42. Turning to UGUGAGCAAUAUUACGGGGA, the “self-splicing fitness (ln)” value runs as follows: (30 °C) -2.36 ± 0.29; (37 °C) -1.65 ± 0.33. The matching figures for UUGAAGCAAUAUUACGAGAC: -3.37 ± 0.17 and -2.5 ± 0.19.

For the sequence GACGAGCAAUAUUACGCAGA, the “self-splicing fitness (ln)” value (30 °C) is -3.74 ± 0.33 and the “self-splicing fitness (ln)” value (37 °C) is -3.45 ± 0.42. The like results for AACUAGCAAUAUUACGCGAU were, in that order, -2.64 ± 0.15 and -2.22 ± 0.17. With UCUAAGCAAUAUUACGCUUG, the “self-splicing fitness (ln)” value (37 °C) was -2.59 ± 0.41.

For UGGCAGCAAUAUUACGUGCG, the “self-splicing fitness (ln)” value was -0.238 ± 0.061 (30 °C) and 0.163 ± 0.084 (37 °C). The like results for AGCAAGCAAUAUUACGUAUU were, in that order, -3.02 ± 0.14 and -1.24 ± 0.11. The like results for GCGGAGCAAUAUUACGGACU were, in that order, -3.06 ± 0.35 and -0.993 ± 0.19.

As to UGCAAGCAAUAUUACGUAAG, the “self-splicing fitness (ln)” value is -2.75 ± 0.13 (30 °C) and -2.64 ± 0.2 (37 °C). CUGUAGCAAUAUUACGCGAG: the “self-splicing fitness (ln)” value reads like this: (30 °C) -3.06 ± 0.29; (37 °C) -2.13 ± 0.25.

On to AUAUAGCAAUAUUACGUUUA, for which the “self-splicing fitness (ln)” value is -2.02 ± 0.25 (30 °C) and -1.63 ± 0.2 (37 °C). GAGCAGCAAUAUUACGGCAC: the “self-splicing fitness (ln)” value (30 °C) was -0.575 ± 0.1 and the “self-splicing fitness (ln)” value (37 °C) was -0.126 ± 0.17. Take ACUCAGCAAUAUUACGUCUG: the “self-splicing fitness (ln)” value is, setting by setting: (30 °C) -3.57 ± 0.14; (37 °C) -2.74 ± 0.16. On to GAAGAGCAAUAUUACGGGUC, for which the “self-splicing fitness (ln)” value (30 °C) was -1.86 ± 0.27. Turning to GCUGAGCAAUAUUACGUACA, the “self-splicing fitness (ln)” value reads like this: (30 °C) -2.45 ± 0.24; (37 °C) -2.88 ± 0.28. As for GCCAAGCAAUAUUACGCCAC, the “self-splicing fitness (ln)” value (37 °C) was -1.25 ± 0.27.

Take GUGGAGCAAUAUUACGUUCA: the “self-splicing fitness (ln)” value is, setting by setting: (30 °C) -1.02 ± 0.11; (37 °C) -0.668 ± 0.11. For AUGUAGCAAUAUUACGUCGU, the “self-splicing fitness (ln)” value was -3.28 ± 0.24 (30 °C) and -0.241 ± 0.12 (37 °C).

For UCUAAGCAAUAUUACGCUGC, the “self-splicing fitness (ln)” value by setting is: (30 °C) -3.41 ± 0.19; (37 °C) -2.84 ± 0.19. As to CGGGAGCAAUAUUACGGUUU, the “self-splicing fitness (ln)” value (37 °C) was -1.19 ± 0.32.

With UUCUAGCAAUAUUACGUAAA, the “self-splicing fitness (ln)” value reads like this: (30 °C) -1.56 ± 0.26; (37 °C) -0.54 ± 0.23. GGAUAGCAAUAUUACGGAUA: the “self-splicing fitness (ln)” value (37 °C) was -1.56 ± 0.26. For UUCUAGCAAUAUUACGGGUC, the “self-splicing fitness (ln)” value runs as follows: (30 °C) -3.23 ± 0.32; (37 °C) -1.94 ± 0.23. The like results for CAACAGCAAUAUUACGCCAG were, in that order, -1.4 ± 0.11 and -0.809 ± 0.14.

As to GGUAAGCAAUAUUACGAAAC, the “self-splicing fitness (ln)” value is -1.48 ± 0.14 (30 °C) and -0.179 ± 0.12 (37 °C). The matching figures for CAAGAGCAAUAUUACGACUA: -3.01 ± 0.23 and -2.47 ± 0.21. As to GAAAAGCAAUAUUACGAAAG, the “self-splicing fitness (ln)” value reads like this: (30 °C) -3.5 ± 0.15; (37 °C) -1.9 ± 0.14. On to AAAAAGCAAUAUUACGCUUU, for which the “self-splicing fitness (ln)” value was -4.64 ± 0.27 (30 °C) and -2.32 ± 0.19 (37 °C). The matching figures for AAACAGCAAUAUUACGUAUG: -2.03 ± 0.094 and -1.31 ± 0.11.

CUAUAGCAAUAUUACGUGGA: the “self-splicing fitness (ln)” value is -2.83 ± 0.19 (30 °C) and -2.4 ± 0.27 (37 °C). The like results for UCGCAGCAAUAUUACGUCUA were, in that order, -0.18 ± 0.11 and 0.716 ± 0.12.
